Key:
[1] = biological target: T1, transcription factor HTF4A amino acids 296-494 (yeast; human, UniProt P04386 768-881; Q99081 296-494); test: yeast two-hybrid
T1 sequence (looked up): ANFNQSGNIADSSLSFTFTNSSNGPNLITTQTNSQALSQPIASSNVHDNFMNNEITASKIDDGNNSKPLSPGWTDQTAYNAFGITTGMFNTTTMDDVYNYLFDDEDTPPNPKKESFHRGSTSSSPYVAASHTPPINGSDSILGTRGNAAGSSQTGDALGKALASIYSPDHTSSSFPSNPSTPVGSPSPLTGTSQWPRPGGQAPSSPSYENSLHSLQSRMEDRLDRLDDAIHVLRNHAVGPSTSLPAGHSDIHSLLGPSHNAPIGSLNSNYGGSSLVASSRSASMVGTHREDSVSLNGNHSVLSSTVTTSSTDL
Source text: (§1) The principles and methods of the yeast two-hybrid systems have been described in detail (Bartel and Fields, 1997). The following is thus a description of the particular procedure that was used, which was applied to all proteins.
(§2) The cDNA encoding the bait protein was generated by PCR from brain cDNA. Gene-specific primers were synthesized with appropriate tails added at their 5′ ends to allow recombination into the vector pGBTQ. The tail for the forward primer was 5′-[…]-3′ (SEQ ID NO: 1) and the tail for the reverse primer was 5′-[…]-3′ (SEQ ID NO:2). […] The new construct was selected directly in the yeast J693 for its ability to drive tryptophane synthesis (genotype of this strain: Mat α, ade2, his3, leu2, trp1, URA3::GAL1-lacZ LYS2::GAL1-HIS3 gal4del gal80del cyhR2). In these yeast cells, the bait is produced as a C-terminal fusion protein with the DNA binding domain of the transcription factor Gal4 (amino acids 1 to 147). A total human brain (person) cDNA library cloned into the yeast expression vector pACT2 was purchased from Clontech (human brain […] cDNA, cat. # HL4004AH), transformed into the yeast strain J692 (genotype of this strain: Mat α, ade2, his3, leu2, trp1, URA3::GAL1-lacZ LYS2::GAL1-HIS3 gal4del gal80del cyhR2), and selected for the ability to drive leucine synthesis. In these yeast cells, each cDNA is expressed as a fusion protein with the transcription activation domain of the transcription factor Gal4 (amino acids 768 to 881) and a 9 amino acid hemagglutinin epitope tag. J693 cells […] expressing the bait were then mated with J692 cells […] expressing proteins from the brain library. The resulting diploid yeast cells expressing proteins interacting with the bait protein were selected for the ability to synthesize tryptophane, leucine, histidine, and β-galactosidase.

[2] = biological target: T2, neuroendocrine protein Discs Large 3 (NE-dlg, DLG3) amino acids 94-506 (yeast; human, UniProt P04386 768-881; Q92796 94-506); test: yeast two-hybrid
T2 construct: also called SAP102
T2 sequence (looked up): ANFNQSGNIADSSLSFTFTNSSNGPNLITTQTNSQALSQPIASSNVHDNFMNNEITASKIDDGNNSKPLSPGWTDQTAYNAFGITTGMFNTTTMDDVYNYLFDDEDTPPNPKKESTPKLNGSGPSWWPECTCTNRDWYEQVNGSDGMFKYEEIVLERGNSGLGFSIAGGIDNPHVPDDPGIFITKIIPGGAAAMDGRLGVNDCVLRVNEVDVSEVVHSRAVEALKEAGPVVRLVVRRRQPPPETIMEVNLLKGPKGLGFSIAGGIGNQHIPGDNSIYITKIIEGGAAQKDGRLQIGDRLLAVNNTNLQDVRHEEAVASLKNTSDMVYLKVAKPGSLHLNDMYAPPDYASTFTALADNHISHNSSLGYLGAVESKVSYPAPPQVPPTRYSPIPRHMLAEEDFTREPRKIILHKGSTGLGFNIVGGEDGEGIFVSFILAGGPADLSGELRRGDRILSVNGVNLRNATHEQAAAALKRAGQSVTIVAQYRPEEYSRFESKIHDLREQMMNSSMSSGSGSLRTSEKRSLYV
Source text: as §1, §2

B1: bcr (break point cluster) amino acids 1206-1271, C-terminal bait (other, UniProt P04386 1-147, looked up)
chain: MKLLSSIEQACDICRLKKLKCSKEKPKCAKCLKNNWECRYSPKTKRSPLTRAHLTEVESRLERLEQLFLLIFPREDLDMILKMDSLQDIKALLTGLFVQDNVNKDAVTDRLASVETDMPLTLRQHRISATSSSEESSNKGQRQLTVSVFGPTLLRPSEKESKLPANPSQPITMTDSWSLEVMSQVQVLLYFLQLEAIPAPDSKRQSILFSTEV
- binding result [1]: binds
- binding result [2]: binds
